In EP4259652B1:

Molecular target: monoclonal antibody NBH133A1-2B4
Assay: competitive ELISA: standard peptide competes with coated …-K-Biotin for HRP-labelled antibody

IC50: 0.0117 µg/mL
B1: standard peptide … (peptide)
peptide: NLLNLNKDKE
